B1: 3D11 (antibody, V domains shown)
VH: QVQLQQPGAELVKPGASVKLSCKASGYSFTSYWMNWVKQRPGRGLEWIGRIHPSDSETHYNQNFKSKATLTVDKSSSTAYIQLNSLTSEDSAVYYCARPYYFYGSSPYAMDYWGQGASVTVSS
VL: DVVMTQTPLSLPVSLGDQASISCRSSQSIVHSNGNTYLEWYLQKPGQSPKLLIYKVSNRFSGVPDRFSGSGSGTDFTFKISRVEAEDLGVYYCFQGSHVPYTFGGGTKLEIK
notes: Recombinant mouse antibody made in CHO cells
B2: 3G10 (antibody, V domains shown)
VH: QIQLKESGPGLVQPSQSLSITCTVSGFSLTSYGVHWVRQSPGKGLEWLGVIWSGGYTDYNSAFISRLSISKDNSKSQVFFKMNSLQADDTAIYYCARDITTIVEGFAYWGQGTLVTVSA
VL: IIVMTQSPKSMSMSVGERITLNCKASENVGTYVSWYQQKPEQSPKLLIYGASNRYTGVPDHFTGSGSATDFTLTISSVQAEDLADYHCGQTYSYPFTFGSGTKLEIK
notes: as for B1
B3: 7F10 (antibody, V domains shown)
VH: B2 VH with I2V, K5Q, E6Q, V34I, G54S, Y56S, S61A, A87S, Y93H, V103A
VL: B2 VL with I1N, I19V, N22S, H61R, T91S
notes: as for B1
B4: 6D9 (antibody, mouse IgG2a, V domains shown)
VH: QIQLQQSGPGLVQPSQSLSITCTVSGFSLTSYGVQWIRQSPGKGLEWLGVIWSSGSTDYNAAFLSRLSFSKDNSKSQVFFQMNSLQADDSAIYYCARDVTTIVEGFAHWGQGTLVTVSA
VL: B2 VL with I1N, I19V, N22S, N28K, H61R, A80V
notes: also called 6D9-mIgG2a; murine VTCN1 antibody 6D9
B5: 4C6 (antibody, V domains shown)
VH: B2 VH with I2M, K5Q, V34I, G54S, Y56S, S61A, A87S, Y93H, V103A, A119S
VL: B2 VL with I1N, I19V, N22S, H61R, T91S
notes: as for B1
B6: 5A12 (antibody, V domains shown)
VH: B2 VH with I2V, K5Q, E6Q, H35Q, G54S, Y56S, S61A, S70N, A87P
VL: B2 VL with I19V, N22S, H61R, T91S
notes: as for B1
B7: 6E2 (antibody, V domains shown)
VH: B2 VH with K5Q, H35Q, Y56S, S61A, T100S, Y108H, A119S
VL: B2 VL with I1N, I19V, N22S, N28K, H61R, T91S, S93R
notes: as for B1
B8: 10D1 (antibody, V domains shown)
VH: QVQLQESGPELVKPGASVKLSCKASGYIFTDYTIHWLKQSPGQGLEWIGWIYPGSGHTHYNDKFKGKATMTADKSSTTAYMQLSSLTSEDSAVFFCARGGESITTVFPLAYWGQGTLVTVSA
VL: DIVMSQSPSSLAVSVGEKVTMSCKSSQSLLYSSDQKNYLAWYQQKPGQSPKLLIYWASTWESGVPDRFIGSGSGTDFTLTVSSVKAEDLAVYYCHQYYSYPPTFGAGTKLEIK
notes: as for B1

The term Kd denotes the constant that tells how readily two partners part at equilibrium.

Residue numbers refer to the chain shown, from its start.

The first experiment deals with T1, recombinant human VTCN1-his protein (human, UniProt Q7Z7D3 25-259, limits assumed).
T1 construct: also called human VTCN1 protein; recombinant VTCN1
T1 sequence: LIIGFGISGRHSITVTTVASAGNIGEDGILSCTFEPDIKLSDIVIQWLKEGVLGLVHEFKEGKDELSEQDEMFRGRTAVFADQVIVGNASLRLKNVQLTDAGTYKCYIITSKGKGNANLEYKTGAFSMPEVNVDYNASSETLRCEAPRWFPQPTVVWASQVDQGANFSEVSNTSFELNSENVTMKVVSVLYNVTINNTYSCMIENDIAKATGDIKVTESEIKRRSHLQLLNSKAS
Description: BLI (OCTET Red), antibody on Protein A biosensor, recombinant VTCN1-his in solution.
For B1, the dissociation constant (Kd) is 6 nM.
Same read-out and setting: as for B2, the figure is 12 nM; as for B3, 5 nM.
On the same count and under the same terms, as for B4, the figure is 2 nM; as for B5, 14 nM; as for B6, 4 nM.
In the case of B7, the Kd worked out at 8 nM.
The same measure, in the same setting: as for B8, the figure is 4 nM.

The target of another experiment is T2, cynomolgus monkey VTCN1 protein (cynomolgus monkey, UniProt A0A2K5U6P5 25-259).
T2 construct: The construct and its tag are not described; also called cyno VTCN1
T2 sequence: T1 sequence with L53I
Description: BLI (OCTET Red), antibody on Protein A biosensor, cyno VTCN1.
As for B1, binding was put at a Kd of 2 nM.
Same read-out and setting: the figure for B2 is 14 nM.
The molecule B3 registered a Kd of 12 nM.
The same measure, in the same setting: as for B4, the figure is 7 nM; as for B5, 16 nM.
Same read-out and setting: the figure for B6 is 12 nM; for B7 it is 19 nM.
As to B8, the Kd was 1 nM.

The record behind these values is patent US20240294644A1 (BLUEFIN BIOMEDICINE, published 2024).
